Reference: patent US20200140562A1 (Innovent, published 2020)
One block for each binder: values may come before it.

Key:
[1] = biological target: T1, human OX40 on cells (CHO-hOX40, 293HEK-hOX40, Jurkat-hOX40, activated primary CD4+ T cells) (human, UniProt P43489 29-277); assay: flow cytometry, 293HEK-hOX40, 8 nM
T1 construct: whole, on cells; The cell type is told in each assay; also called CHO-OX40
T1 sequence (looked up): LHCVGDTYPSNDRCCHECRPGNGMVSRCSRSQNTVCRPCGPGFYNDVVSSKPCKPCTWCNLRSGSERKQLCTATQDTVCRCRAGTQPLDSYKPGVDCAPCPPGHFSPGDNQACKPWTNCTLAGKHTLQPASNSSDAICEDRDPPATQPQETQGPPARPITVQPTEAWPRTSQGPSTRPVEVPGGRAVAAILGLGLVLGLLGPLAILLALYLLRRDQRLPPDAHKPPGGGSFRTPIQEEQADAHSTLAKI

[2] = biological target: T2, cyno OX40_Fc (Acro Biosystems) (cyno); assay: BLI, IgG1 on tip, cyno OX40-Fc 100 nM, avid
T2 construct: Bought

[3] = biological target: T1, human OX40 on cells (CHO-hOX40, …); assay: cell-based or functional assay
[4] = biological target: T1, human OX40 on cells (CHO-hOX40, …); assay: flow cytometry, 293HEK-hOX40, 1.6 nM
[5] = biological target: T1, human OX40 on cells (CHO-hOX40, …); assay: flow cytometry, activated CD4+ T cells, donor 1, 100 nM
[6] = biological target: T3, human OX40_Fc (R&D Systems) (human, UniProt P43489 29-216); assay: BLI, IgG1 on tip, hOX40-Fc 50 nM, avid
T3 construct: Bought

[7] = biological target: T1, human OX40 on cells (CHO-hOX40, …); assay: flow cytometry, CHO-hOX40, 100 nM
[8] = biological target: T1, human OX40 on cells (CHO-hOX40, …); assay: flow cytometry, activated CD4+ T cells, donor 2, 100 nM
[9] = biological target: T1, human OX40 on cells (CHO-hOX40, …); assay: flow cytometry, 293HEK-hOX40, 200 nM
[10] = biological target: T4, mouse OX40Fc (Acro Biosystems) (mouse, UniProt P47741 20-211, limits assumed); assay: BLI, IgG1 on tip, mouse OX40-Fc in solution
T4 construct: Bought; not shown: Fc
T4 sequence (looked up): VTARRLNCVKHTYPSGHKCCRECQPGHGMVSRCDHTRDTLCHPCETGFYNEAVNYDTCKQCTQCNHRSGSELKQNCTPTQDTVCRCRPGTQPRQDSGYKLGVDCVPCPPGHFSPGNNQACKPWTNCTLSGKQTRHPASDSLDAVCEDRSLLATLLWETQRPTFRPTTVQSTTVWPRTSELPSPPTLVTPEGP

[11] = biological target: T1, human OX40 on cells (CHO-hOX40, …); assay: flow cytometry, 293HEK-hOX40, 40 nM
[12] = biological target: T1, human OX40 on cells (CHO-hOX40, …); assay: flow cytometry, MFI on CHO-hOX40 over wild-type CHO
[13] = biological target: T1, human OX40 on cells (CHO-hOX40, …); assay: flow cytometry, CHO-hOX40, 100 nM blocker, competitor OX40L-hFc-fluorescein
[14] = biological target: T1, human OX40 on cells (CHO-hOX40, …); assay: flow cytometry, CHO-hOX40, 0.048828125 nM
[15] = biological target: T1, human OX40 on cells (CHO-hOX40, …); assay: flow cytometry, CHO-hOX40
[16] = biological target: T1, human OX40 on cells (CHO-hOX40, …); assay: flow cytometry, CHO-hOX40, 12.5 nM
[17] = biological target: T1, human OX40 on cells (CHO-hOX40, …); assay: flow cytometry, CHO-hOX40, 0.1953125 nM
[18] = biological target: T1, human OX40 on cells (CHO-hOX40, …); assay: flow cytometry, CHO-hOX40, 50 nM
[19] = biological target: T1, human OX40 on cells (CHO-hOX40, …); assay: flow cytometry, CHO-hOX40, 0.390625 nM
[20] = biological target: T1, human OX40 on cells (CHO-hOX40, …); assay: flow cytometry, CHO-hOX40, 0.78125 nM
[21] = biological target: T1, human OX40 on cells (CHO-hOX40, …); assay: flow cytometry, CHO-hOX40, 0.024414063 nM
[22] = biological target: T1, human OX40 on cells (CHO-hOX40, …); assay: flow cytometry, CHO-hOX40, 100 nM; remark: listed apart in the source
[23] = biological target: T1, human OX40 on cells (CHO-hOX40, …); assay: flow cytometry, CHO-hOX40, 3.125 nM
[24] = biological target: T1, human OX40 on cells (CHO-hOX40, …); assay: flow cytometry, CHO-hOX40, 0.09765625 nM
[25] = biological target: T1, human OX40 on cells (CHO-hOX40, …); assay: flow cytometry, CHO-hOX40, 1.5625 nM
[26] = biological target: T1, human OX40 on cells (CHO-hOX40, …); assay: flow cytometry, CHO-hOX40, 200 nM
[27] = biological target: T1, human OX40 on cells (CHO-hOX40, …); assay: flow cytometry, CHO-hOX40, 25 nM
[28] = biological target: T1, human OX40 on cells (CHO-hOX40, …); assay: flow cytometry, CHO-hOX40, 6.25 nM
[29] = biological target: T4, mouse OX40Fc (Acro Biosystems); assay: BLI, IgG1 on tip, mouse OX40-Fc 100 nM, avid

B2: Hu106-222 (IgG2) (antibody, V domains shown)
VH: QVQLVQSGSELKKPGASVKVSCKASGYTFTDYSMHWVRQAPGQGLKWMGWINTETGEPTYADDFKGRFVFSLDTSVSTAYLQISSLKAEDTAVYYCANPYYDYVSYYAMDYWGQGTLVTVSS
VL: DIQMTQSPSSLSASVGDRVTITCKASQDVSTAVAWYQQKPGKAPKLLIYSASYLYTGVPSRFSGSGSGTDFTFTISSLQPEDIATYYCQQHYSTPRTFGQGTKLEIK
MFI [14]: 15400 MFI
EC50 [15]: 8.37 nM
MFI [16]: 1.52e+06 MFI
MFI [17]: 49500 MFI
MFI [18]: 1.59e+06 MFI
MFI [19]: 101000 MFI
MFI [20]: 188000 MFI
MFI [21]: 14600 MFI
MFI [22]: 2.39e+06 MFI
MFI [23]: 660000 MFI
MFI [24]: 28200 MFI
MFI [25]: 334000 MFI
MFI [26]: 2.55e+06 MFI
MFI [27]: 2.16e+06 MFI
MFI [28]: 1.06e+06 MFI

B5: ADI-20048, IgG1 format (antibody, V domains shown)
VH: QVQLQESGPGLVKPSETLSLTCTVSGGSISSYYWSWIRQPPGKGLEWIGYIYSSGSTNYNPSLKSRVTISVDTSKNQFSLKLSSVTAADTAVYYCARDAPGGSSYQDYYMDVWGKGTTVTVSS
VL: EIVLTQSPATLSLSPGERATLSCRASQSVSSYLAWFQQKPGQAPRLLIYDASNRATGIPARFSGSGSGTDFTLTISSLEPEDFAVYYCQQAFSMPPTFGGGTKVEIKR
notes: Made in yeast
MFI [1]: 1.73e+06 MFI
Kd [2]: 9.86 nM
NFkB-Luc fold change in Jurkat stimulated by PHA+ anti-CD28 [3]: 3.63 fold over IgG4 control
NFkB-Luc fold change in Jurkat stimulated by anti-CD3+ anti-CD28 [3]: 5.77 fold over IgG4 control
MFI [4]: 977000 MFI
MFI [5]: 43100 MFI
Kd [6]: 3.68 nM
CHO-OX40 binding intensity (MFI) [7]: 143000 MFI
MFI [8]: 62600 MFI
MFI [9]: 1.7e+06 MFI
MFI [11]: 1.85e+06 MFI
Kd [29]: 3.76 nM
Fold difference [12]: 1470 fold
MFI of OX40L signal on CHO-OX40 cells [13]: 34300 MFI

More lines, now with the values ahead:

MFI [1]: 2.82e+06 MFI
Kd [2]: 14.3 nM
NFkB-Luc fold change in Jurkat stimulated by PHA+ anti-CD28 [3]: 2.09 fold over IgG4 control
NFkB-Luc fold change in Jurkat stimulated by anti-CD3+ anti-CD28 [3]: 1.96 fold over IgG4 control
MFI [4]: 626000 MFI
MFI [5]: 134000 MFI
Kd [6]: 0.91 nM
CHO-OX40 binding intensity (MFI) [7]: 161000 MFI
MFI [8]: 193000 MFI
MFI [9]: 2.55e+06 MFI
binding result [10]: no binding (tested: 100 nM)
MFI [11]: 2.39e+06 MFI
Fold difference [12]: 2750 fold
MFI of OX40L signal on CHO-OX40 cells [13]: 32800 MFI
B1: ADI-20066, IgG1 format (antibody, V domains shown)
VH: QLQLQESGPGLVKPSETLSLTCTVSGGSISSSSYYWGWIRQPPGKGLEWIGSIYYSGSTYYNPSLKSRVTISVDTSKNQFSLKLSSVTAADTAVYYCARDPGYSASPNWFDPWGQGTLVTVSS
VL: EIVLTQSPGTLSLSPGERATLSCRASQSVSSSFLAWYQQKPGQAPRLLIYGASSRATGIPDRFSGSGSGTDFTLTISRLEPEDFAVYYCQQYDVFPITFGGGTKVEIKR
notes: Made in yeast

MFI [1]: 2e+06 MFI
Kd [2]: 5.52 nM
NFkB-Luc fold change in Jurkat stimulated by PHA+ anti-CD28 [3]: 3.79 fold over IgG4 control
NFkB-Luc fold change in Jurkat stimulated by anti-CD3+ anti-CD28 [3]: 3.98 fold over IgG4 control
MFI [4]: 734000 MFI
MFI [5]: 84400 MFI
Kd [6]: 1.22 nM
CHO-OX40 binding intensity (MFI) [7]: 152000 MFI
MFI [8]: 115000 MFI
MFI [9]: 2.41e+06 MFI
binding result [10]: no binding (tested: 100 nM)
MFI [11]: 2.18e+06 MFI
Fold difference [12]: 2460 fold
MFI of OX40L signal on CHO-OX40 cells [13]: 24000 MFI
B3: ADI-20113, IgG1 format (antibody, V domains shown)
VH: QVQLVESGGGVVQPGRSLRLSCAASGFTFSSYGMHWVRQAPGKGLEWVAVISYDGSNKYYADSVKGRFTISRDNSKNTLYLQMNSLRAEDTAVYYCARGRPWYSETGTSAFDIWGQGTMVTVSS
VL: EIVMTQSPATLSVSPGERATLSCRASQSVSSNLAWYQQKPGQAPRLLIYSASTRATGIPARFSGSGSGTEFTLTISSLQSEDFAVYYCQQHNVYPPYTFGGGTKVEIKR
notes: Made in yeast

MFI [1]: 1.1e+06 MFI
NFkB-Luc fold change in Jurkat stimulated by PHA+ anti-CD28 [3]: 4.57 fold over IgG4 control
NFkB-Luc fold change in Jurkat stimulated by anti-CD3+ anti-CD28 [3]: 5.12 fold over IgG4 control
MFI [4]: 417000 MFI
MFI [5]: 54600 MFI
Kd [6]: 3.36 nM
CHO-OX40 binding intensity (MFI) [7]: 133000 MFI
MFI [8]: 75400 MFI
MFI [9]: 1.84e+06 MFI
MFI [11]: 1.82e+06 MFI
Kd [29]: 5.41 nM
Fold difference [12]: 1970 fold
MFI of OX40L signal on CHO-OX40 cells [13]: 31900 MFI
B4: ADI-20096, IgG1 format (antibody, V domains shown)
VH: EVQLVESGGGLVKPGGSLRLSCAASGFTFSSYSMNWVRQAPGKGLEWVSSISSSSNYIYYADSVKGRFTISRDNAKNSLYLQMNSLRAEDTAVYYCARGAPLGYSWEYFDLWGRGTLVTVSS
VL: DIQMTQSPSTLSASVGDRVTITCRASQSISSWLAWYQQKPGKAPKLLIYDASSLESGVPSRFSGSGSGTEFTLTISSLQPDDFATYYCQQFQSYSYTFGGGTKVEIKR
notes: Made in yeast
